Reference: article doi:10.1101/2020.05.20.106609 (bioRxiv, 2020)

B1: MD47 (scFv, V domains shown)
V domain 1: QMQLVQSGGGLVQPGGSLRLSCAASGFTFSSYAMSWVRQAPGKGLEWVSAISSGGSTYYADSVKGRFTISRDNSKNTLYLQMNSLRAEDTAVYYCAKDLVTAPSYEAFDIWGQGTMITVSS
V domain 2: NFMLTQPPSVSVAPGKTARITCGGNNIGSKSVHWYQQKPGQAPVLVIYYDSDRPSGIPERFSGSNSGNTATLTISRVEAGDEADYYCQVWDSSSHHHVVFGGGTKGTVL
B2: MD17 (scFv, V domains shown)
VH: EVQLLESGGGLVQPGGSLRLSCSASGFTFSTYVMNWVRQAPGKGLEHVSGISSDGGITYYADSVKGRFTISRDNSKNTLYLQMSSLRVEDTAVYYCVKDQDSSSWYDAFDIWGQGTMVTVSS
VL: DIVMTQSPSSLSASVGDRVTITCRASQSISNYLNWYQQKLGKAPKLLTYAASRLQSGVPSRFSASGSGTEFTLTISSLQPEDFATYYCQQSYTTPLTFGGGTKLEIK
B3: MD29 (scFv, V domains shown)
VH: QMQLVQSGGGLVQPGGSLRLSCSASGFTFSTYVMNWVRQAPGKGPEHVSGISSDGGITYYADSVKGRFTISRDNSKNTLYLQMSSLRVEDTAVYYCVKDQDSSSWYDAFDIWGQGTMVTVSS
VL: NIRLTQSPSSLSASVGDRVTITCRATQSISSYLNWYQQKPGKAPNLLIYAASSLQSGVPSRFSGSGSGTDFTLTISSLQPEDFATYYCHQTYTSPYTFGQGTKLEIK
B4: MD62 (scFv, V domains shown)
VH: EVQLVQSGGGLIQPGGSLRLSCAASGVTVSSNYMTWVRQAPGKGLEWVSLIYSGGSTYYADSVKGRFTISRDNSKNTLYLQMNSLRAEDTAVYYCARDLQYYGMDVWGQGTMVTVSS
VL: AIRMTQSPSSVSASVGDRVTITCRASQDIGSWLGWYQQKPGKAPKLLIYAASSLAGGVPSRFSGSGSGTDFTLTISSLQPEDFATYYCQQANSFPLTFGGGTKLEIK

These binders were tested against SARS-CoV-2 spike protein (SARS-CoV-2 Wuhan-Hu-1 (QHD43416), UniProt P0DTC2, stabilised) (assay: ELISA).

Q: Does B1 bind?
A: binds

Q: Does B2 bind?
A: binds

Q: Does B3 bind?
A: binds

Q: Does B4 bind?
A: binds
